From US20110052597A1 (CSL, published 2011)

T1: N-terminal FLAG-tagged fusion protein including most of the extracellular region of human IL-13Rα1 (human, UniProt P78552 29-343)
T1 construct: also called hIL-13Rα1.ECR; Human IL-13Rα1.ECR
T1 sequence: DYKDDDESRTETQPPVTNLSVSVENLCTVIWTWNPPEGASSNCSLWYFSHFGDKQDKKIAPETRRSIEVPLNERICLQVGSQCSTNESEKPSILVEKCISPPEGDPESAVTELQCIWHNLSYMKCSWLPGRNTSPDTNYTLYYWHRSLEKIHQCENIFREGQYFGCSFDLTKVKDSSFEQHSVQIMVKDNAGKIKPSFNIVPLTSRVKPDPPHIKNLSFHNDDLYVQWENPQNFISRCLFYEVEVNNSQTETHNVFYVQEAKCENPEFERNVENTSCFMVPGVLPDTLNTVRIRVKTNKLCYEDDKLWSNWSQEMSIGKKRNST

T2: cynomolgus IL-13Rα1.ECR, N-terminal FLAG-tagged fusion protein (cynomolgus macaque, UniProt P78552 27-343 (human entry))
T2 construct: also called cyIL-13Rα1; Cynomolgus IL13Rα.ECR; not shown: N-terminal FLAG tag from the pEFBOS-S-FLAG vector
T2 chain: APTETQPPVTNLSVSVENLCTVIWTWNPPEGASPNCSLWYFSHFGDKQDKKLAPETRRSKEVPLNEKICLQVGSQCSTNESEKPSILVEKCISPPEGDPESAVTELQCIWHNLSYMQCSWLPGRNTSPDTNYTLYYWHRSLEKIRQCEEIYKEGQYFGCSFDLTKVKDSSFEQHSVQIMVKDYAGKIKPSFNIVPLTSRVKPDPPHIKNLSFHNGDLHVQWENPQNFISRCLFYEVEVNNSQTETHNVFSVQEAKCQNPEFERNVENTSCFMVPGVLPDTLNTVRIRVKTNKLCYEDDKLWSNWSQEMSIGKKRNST

B1: human monoclonal antibody 15F4 (antibody, V domains shown)
VH: QVQLVESGGGVVQPGRSLRLSCAASGFTFSSYGMHWVRQAPGKGLEWVAVIWDDGSNKYYEVSVKGRFTISRDNSKNTLYLQMNSLRVEDTAVYYCARDSNNWYVGVFDIWGQGTMVTVSS
VL: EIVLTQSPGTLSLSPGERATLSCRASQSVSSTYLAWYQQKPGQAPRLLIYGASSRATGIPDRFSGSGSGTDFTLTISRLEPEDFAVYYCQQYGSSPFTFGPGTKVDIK
notes: also called mAb 15F4; hybridoma ATCC PTA-6935
B2: monoclonal antibody 8B4 (antibody, V domains shown)
VH: EVQVLESGGGLVQPGGSLRLSCAASGFTFSNYAMTWVRQAPGKGLEWVSTISGRGYSIYYADSVKGRFTISRDNSKNTVYLQMNSLRAEDTAVYYCAKEEGHWYFDVWGRGTLVTVSS
VL: EIVLTQSPDFQSVTPKEKVTITCRASQSIGSSLHWYQQKPDQSPKLLIKYASQSFSGVPSRFSGSGSGTDFTLTINSLEAEDAAAYYCHQSSSLPYTFGQGTKLEIK

Columns and labels:
[1] = molecular target: T1, N-terminal FLAG-tagged fusion protein …; experiment: BIACORE, hIL-13Rα1.ECR immobilized on CM5 chip, mAb in solution, bivalent model
Excerpt: BIACORE™-Based Studies. […] Ethanolamine (1.0 M), pH 8.0 was used to quench residual active esters post hIL-13Rα1.ECR immobilization.
Sensorgrams generated were fitted to a bivalent ligand binding model to simultaneously derive association (kₐ) and dissociation (kd) rates and used to determine binding affinity (KD, Biaevaluation software, BIACORE™, Sweden).

[2] = molecular target: T2, cynomolgus IL-13Rα1.ECR, N-terminal …; experiment: BIACORE, receptor ECR immobilized on CM5 chip, mAb in solution
[3] = molecular target: T1, N-terminal FLAG-tagged fusion protein …; experiment: as above

| Binder | Kd [1] [nM] | Kd [2] [nM] | Kd [3] [nM] |
| --- | --- | --- | --- |
| B1 | ~2.17 |  |  |
| B2 |  | 0.59 | 4.6 |
